Test results as given in US12497460B2, “Anti-MSR1 antibodies and methods of use thereof” (REGENERON PHARMACEUTICALS, INC., priority 2018, dated 2025).

T1: His9-hMSR1 (human MSR1 extracellular domain) (Homo sapiens, UniProt P21757)
T1 construct: human MSR1 extracellular domain expressed with a N-terminal nonahistidine tag; His9 (nonahistidine) (N); purchased R&D Systems 2708-MS
T1 sequence (P21757 77-451 limits assumed): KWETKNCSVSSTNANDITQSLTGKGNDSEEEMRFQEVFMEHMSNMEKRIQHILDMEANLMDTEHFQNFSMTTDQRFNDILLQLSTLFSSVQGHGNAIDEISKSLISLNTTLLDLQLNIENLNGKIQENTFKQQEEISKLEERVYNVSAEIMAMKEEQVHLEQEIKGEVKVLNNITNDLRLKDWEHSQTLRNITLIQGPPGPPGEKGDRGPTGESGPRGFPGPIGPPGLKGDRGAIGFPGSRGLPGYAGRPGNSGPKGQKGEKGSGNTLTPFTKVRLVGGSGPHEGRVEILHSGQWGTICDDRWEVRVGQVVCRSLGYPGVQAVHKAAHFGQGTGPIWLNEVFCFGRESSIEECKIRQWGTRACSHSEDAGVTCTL

T2: PMA-treated THP-1 cells (endogenously expressed human MSR1) (Homo sapiens, UniProt P21757)
T2 construct: endogenous in cells; host or cells: THP-1 cells differentiated with PMA
T2 sequence (P21757 1-451): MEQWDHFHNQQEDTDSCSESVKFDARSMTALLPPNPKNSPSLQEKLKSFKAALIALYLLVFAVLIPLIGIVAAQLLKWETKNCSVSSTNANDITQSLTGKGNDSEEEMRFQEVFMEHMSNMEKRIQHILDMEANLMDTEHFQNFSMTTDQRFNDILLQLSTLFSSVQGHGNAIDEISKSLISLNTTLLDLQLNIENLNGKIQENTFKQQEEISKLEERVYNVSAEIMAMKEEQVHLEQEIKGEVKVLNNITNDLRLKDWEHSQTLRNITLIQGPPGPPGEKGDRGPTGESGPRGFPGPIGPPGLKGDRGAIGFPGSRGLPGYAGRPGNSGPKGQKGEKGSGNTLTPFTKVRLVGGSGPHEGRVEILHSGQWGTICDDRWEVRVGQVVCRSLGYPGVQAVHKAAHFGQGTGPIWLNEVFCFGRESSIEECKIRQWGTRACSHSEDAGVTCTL

T3: MSR1-mediated Dil-AcLDL uptake in HEK293.Myc.hMSR1 cells (Homo sapiens, UniProt P21757)
T3 construct: expressed in transfected cells; host or cells: HEK293 (lentiviral transduction, hygromycin selection)
T3 sequence (P21757 1-451): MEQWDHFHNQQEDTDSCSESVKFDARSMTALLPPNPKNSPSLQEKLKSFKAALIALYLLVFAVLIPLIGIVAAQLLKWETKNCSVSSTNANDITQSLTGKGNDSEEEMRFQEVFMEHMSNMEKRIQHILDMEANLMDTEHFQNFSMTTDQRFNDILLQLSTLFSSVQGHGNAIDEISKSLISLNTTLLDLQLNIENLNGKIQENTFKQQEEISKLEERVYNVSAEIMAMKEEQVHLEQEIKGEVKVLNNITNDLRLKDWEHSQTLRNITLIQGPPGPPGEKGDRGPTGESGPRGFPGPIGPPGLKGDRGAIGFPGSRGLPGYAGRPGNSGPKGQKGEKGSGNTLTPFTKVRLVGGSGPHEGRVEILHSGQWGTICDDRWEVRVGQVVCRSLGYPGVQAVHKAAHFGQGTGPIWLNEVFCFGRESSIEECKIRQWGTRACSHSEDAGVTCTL


Experiments:
[1] = test system: HMM-mfMSR1 (monkey MSR1 extracellular domain); assay: OCTET bio-layer interferometry binding kinetics of anti-MSR1 mAbs; details: 25° C., analyte HMM-mfMSR1, NB = no binding observed
HMM-mfMSR1 (monkey MSR1 extracellular domain), sequence (as listed by the source): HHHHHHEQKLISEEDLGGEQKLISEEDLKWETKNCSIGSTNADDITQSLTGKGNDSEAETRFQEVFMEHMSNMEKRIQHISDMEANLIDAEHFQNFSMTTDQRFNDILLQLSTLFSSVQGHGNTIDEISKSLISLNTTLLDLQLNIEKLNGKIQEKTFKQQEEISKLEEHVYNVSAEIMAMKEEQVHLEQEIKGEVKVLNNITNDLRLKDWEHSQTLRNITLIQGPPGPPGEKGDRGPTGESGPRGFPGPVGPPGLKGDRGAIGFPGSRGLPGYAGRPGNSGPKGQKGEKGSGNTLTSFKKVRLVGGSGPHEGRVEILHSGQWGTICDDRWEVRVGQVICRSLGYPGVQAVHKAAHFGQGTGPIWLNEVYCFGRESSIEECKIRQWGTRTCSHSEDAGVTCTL
Experimental: (§1) Binding affinities and kinetic constants of human anti-MSR1 antibodies for different MSR1 reagents were determined using a real time, label-free bio-layer interferometry assay on an OCTET® HTX biosensor platform (Pall FortéBio Corp., Menlo Park, CA). The experiment was performed at 25° C. in 10 mM HEPES, 150 mM NaCl, 3 mM EDTA, 0.05% v/v Surfactant Tween-20, and 1 mg/mL BSA, pH7.4 (HBS-EBT) buffer with the plate shaking at the speed of 1000 rpm. Binding studies were performed on human MSR1 extracellular domain expressed with a N-terminal nonahistidine tag (His9-hMSR1; R&D Systems, Cat #2708-MS), monkey MSR1 extracellular domain expressed with a N-terminal myc-myc-hexahistidine tag (HMM-mfMSR1; SEQ ID NO: 418), and mouse MSR1 extracellular domain expressed with a N-terminal nonahistidine tag (His9-mMSR1; R&D Systems, Cat #1797-MS). The anti-MSR1 monoclonal antibodies were captured by dipping either anti-human Fc (AHC) or anti-mouse Fc (AMC) Octet biosensors in wells containing 5 μg/mL or 10 μg/mL of anti-MSR1 monoclonal antibody for 45-90 seconds. The AHC captured anti-MSR1 monoclonal antibodies were then dipped in wells containing 50 nM of His9-mMSR1, while the AMC captured anti-MSR1 monoclonal antibodies were dipped in wells containing different concentrations of His9-hMSR1 or HMM-mfMSR1 (100 nM, 25 nM) or 100 nM His9-mMSR1. The binding of different MSR1 reagents to the captured anti-MSR1 monoclonal antibody was measured for 4 minutes and the dissociation of monoclonal antibody bound MSR1 reagent was monitored for 8-10 minutes in HBS-EBT buffer.
(§2) The association rate (ka) and dissociation rate (kd) were determined by fitting the real-time binding sensorgrams to a 1:1 binding model with mass transport limitation using Scrubber 2.0c curve-fitting software. Binding dissociation equilibrium constant (KD) and dissociative half-life (t½) were calculated from the kinetic rates as: […]
(§3) Binding kinetics parameters for His9-hMSR1, HMM-mfMSR1 or His9-mMSR1 binding to different anti-MSR1 monoclonal antibodies of the invention at 25° C. are shown in Tables 8 and 9.

[2] = biological target: T1, His9-hMSR1 (human MSR1 extracellular domain); assay: as above; details: 25° C., analyte His9-hMSR1, NB = no binding observed
Experimental: as §1, §2, §3

[3] = biological target: T2, PMA-treated THP-1 cells (endogenously expressed human MSR1); assay: Electrochemiluminescence antibody binding assay on MSR1-expressing cells; format: cell-based
parental HEK293 cells = assay: Electrochemiluminescence antibody binding assay, non-specific binding control cells; format: cell-based, human
[4] = biological target: T3, MSR1-mediated Dil-AcLDL uptake in HEK293.Myc.hMSR1 cells; assay: Ligand uptake assay, Dil-AcLDL; format: cell-based; details: 10 μg/mL Dil-AcLDL
Experimental: A bioassay was generated to assess the ability of the exemplary anti-MSR1 antibodies to regulate the uptake of certain MSR1 ligands.
Generation of MSR1-expressing cell lines for assay. […] The resulting cell line, referred to here as “HEK293.Myc.hMSR1”, was selected and maintained in DMEM containing 10% FIBS, NEAA, penicillin/streptomycin, L-glutamine, and 100 μg/mL hygromycin.
Ligand uptake assay. […] After 30 minutes, either oxidized or acetylated low-density lipoprotein (LDL) labeled with 1,1′dioctadecyl-3,3,3′,3′-tetramethylindocarbocyanine perchlorate (referred to as “Dil-OxLDL” or “Dil-AcLDL,” respectively) was added to the cells at a constant concentration of 10 μg/mL. […] Results were analyzed using nonlinear regression (4-parameter logistics) with the Prism 7 program to obtain EC50 and IC50 values. The percentage of inhibition was calculated with the Relative Fluorescent Unit (RFU) values by using the following equation: […]
In the equation, “RFUBaseline” is the fluorescence value from the cells treated with 10 μg/mL ligand without antibodies, “RFUInhibition” is the minimum fluorescence value with for a particular antibody with 10 μg/mL ligand, and “RFUBackground” is the fluorescence value from cells without any ligand or antibodies.

Row | ka [1] | kd [1] | ka [2] | kd [2] | Ratio of 11 nM Antibody Binding Signal (RLU) to isotype control, PMA-treated THP-1 [3] | Dil-Acetylated LDL IC50 [4] | maximum inhibition of Dil-AcLDL uptake [4] | Dil-Acetylated LDL % Inhibition ([4]; maximum inhibition) | Molecule | Ratio of 11 nM Antibody Binding Signal (RLU) to isotype control, HEK293 (parental HEK293 cells)
1 | 312000 M⁻¹ s⁻¹ | 0.000571 s⁻¹ | 360000 M⁻¹ s⁻¹ | 0.000527 s⁻¹ | 8 |  |  |  | H2aM25695N: one of "Twelve anti-MSR1 antibodies"; "an “H2aM” antibody has a mouse IgG2a Fc" (antibody, V domains shown) VH: QVQLQESGPGLVKPSETLSLTCTVTGGSISRNYWSWIRQPPGKGLEWIGYIYYSGSINYNPSLKSRVTISVDMSKNQFSLKLNSVTAADTAVYYCARDRWNWKYGMDVWGQGTTVIVSS VL: EIVLTQSPGTLSLSPGERATLSCRASQTVRNSYLAWYHQKPGQAPRLLIYGASSRATGIPDRFSGSGSGTDFTLTISRLEPEDFAVYYCQQYGSSYWTFGQGTKMEIKR | 5
2 | 135000 M⁻¹ s⁻¹ | 0.00222 s⁻¹ | 300000 M⁻¹ s⁻¹ | 0.00021 s⁻¹ | 56 | no inhibition | no inhibition | no inhibition | H2aM21229N: one of "Twelve anti-MSR1 antibodies"; "an “H2aM” antibody has a mouse IgG2a Fc" (antibody, V domains shown) VH: EVQLVESGGGLVKPGGSLRLSCAASGFTFSRYSMNWVRQAPGKGLEWVSSISSSSSYIYYGDTVKGRFTISRDNAKKSLYLQMNSLRAEDTAVYYCVRDRGQLVLYFDYWGQGTLVTVSS VL: DIQMTQSPASLSTSIRDRVTITCRASLSISSFLNWFQQRPGKAPKLLIYVASNLQSGVPSRFSDSGSGTDFTLTISSLQPEDFATYYCQQNYSTPPITFGQGTRLEIK | 36
